These binders were tested against T1, hu-CD74 antigen (R&D SYSTEMS catalog #3590-CD-050) (human, UniProt P04233-2 73-232, limits assumed) (assay: SPR (Biacore T200), captured on anti-human Fc, rhCD74 analyte).
T1 construct: Bought antigen; also called rhCD74; human CD74
T1 sequence (looked up): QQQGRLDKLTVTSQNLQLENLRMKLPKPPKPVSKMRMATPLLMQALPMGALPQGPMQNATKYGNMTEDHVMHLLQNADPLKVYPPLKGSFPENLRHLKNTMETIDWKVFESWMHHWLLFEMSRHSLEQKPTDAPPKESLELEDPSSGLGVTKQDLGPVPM

| Binder | Kd [nM] | koff [s⁻¹] | kon [M⁻¹ s⁻¹] |
| --- | --- | --- | --- |
| 1337-A04 light chain paired with VH 1251-A06 (SEQ ID NO: 236) (Fab, V domains shown, 'in Fab format') VH: QVQLVESGGGVVQPGRSLRLSCAASGFDFSSYGMHWVRQAPDKGLEWVAVIWDDGSDRYYADSVKGRFTISRDNSKNTLYLQMNSLRAEDTAVYYCARGGTRVLGAIHGTDVWGQGTTVTVSS VL: DIQMTQSPSSLSASVGDRVTITCRASQDIGRWVAWYQQKPEKAPKSLIYGASSLQSGVPSRFSGSGSGTDFTLTISSLQPEDFATYYCQQYNTYPLTFGGGTKVEIK | 0.158 | 0.000123 | 775000 |

Molecular target: T1, hu-CD74 antigen (R&D SYSTEMS catalog …)
Assay: as above
Remark: another data set of the same source
Description: Kinetic binding experiments were performed at 25° C. using 1×HBS-EP+buffer. Kinetic data was collected by injecting test and control antibodies at concentrations of 10, 5 and 2.5 μg/mL for 12 s at a flow rate of 10 μl/min on flow cells 2, 3 and 4 respectively, followed by a buffer wash for 30 s at the same flow rate. Kinetic characterization of antibody samples was carried out with 8 concentrations of a 1:2 dilution series of rhCD74 antigen (R&D Systems) and 2 injections of 0 nM antigen (buffer only). […] Between each ligand capture and analyte binding cycle, regeneration was carried out using 2 injections of 3M MgCl₂ for 30 seconds at 30 μL/min, followed by a 30 second buffer wash step.

| Binder | Kd [nM] | koff [s⁻¹] | kon [M⁻¹ s⁻¹] |
| --- | --- | --- | --- |
| 1275-G02 light chain paired with HC 1251-F07 (SEQ ID NO: 311) (antibody, human IgG1, V domains shown) VH: QVQLVESGGGVVQPGRSLRLSCAASGFTFSSHGMHWVRQAPDKGLEWVAVIWDDGSNEVYADSVKGRFTISRDNSKNTLYLQMNSLRAEDTAVYYCARGGTRIRGLRYGTDVWGQGTTVTVSS VL: DIQMTQSPSSLSASVGDRVTITCRASQGLGSFLAWYQQKPEKAPKSLIYLGNLLQIGVPSRFSGSGSGTDFTLTISSLQPEDFATYYCQQYNAYPLTFGGGTKVEIK | 0.528 | 0.000297 | 563000 |
| 1275-C10 light chain paired with HC 1251-A06 (SEQ ID NO: 310) (antibody) heavy: not shown VL: DIQMTQSPSSLSASVGDRVTITCRASQGVSSWLAWYQQKPEKAPKSLIYSARYLQSGVPSRFSGSGSGTDFTLTISSLQPEDFATYYCQQYNLYPLTFGGGTKVEIK | 0.26 | 0.000234 | 901000 |
| 1251-C03 heavy chain paired with VL SEQ ID NO: 272 (antibody, V domains shown) VH: QVQLVESGGGVVQPGRSLRLSCAASGFNFSSYGMHWVRQAPDKGLEWVAVIWYDGSIKNYADSVKGRFTISRDNSKNTLYLQMNSLRAEDTAVYYCARGGALMRGEFSGHDVWGQGTTVTVSS VL: DIQMTQSPSSLSASVGDRVTITCRASQGISSWLAWYQQKPEKAPKSLIYAASSLQSGVPSRFSGSGSGTDFTLTISSLQPEDFATYYCQQYNSYPLTFGGGTKVEIK | 1.63 | 0.00118 | 722000 |
| 1251-A06 heavy chain paired with VL SEQ ID NO: 272 (antibody, V domains shown) VH: QVQLVESGGGVVQPGRSLRLSCAASGFDFSSYGMHWVRQAPDKGLEWVAVIWDDGSDRYYADSVKGRFTISRDNSKNTLYLQMNSLRAEDTAVYYCARGGTRVLGAIHGTDVWGQGTTVTVSS VL: DIQMTQSPSSLSASVGDRVTITCRASQGISSWLAWYQQKPEKAPKSLIYAASSLQSGVPSRFSGSGSGTDFTLTISSLQPEDFATYYCQQYNSYPLTFGGGTKVEIK | 0.114 | 9.99e-05 | 873000 |
| 1251-G02 heavy chain paired with VL SEQ ID NO: 272 (antibody, V domains shown) VH: QVQLVESGGGVVQPGRSLRLSCAASGFTFSSYGMHWVRQAPDKGLEWVAVIWHDGSKDYYADSVKGRFTISRDNSKNTLYLQMNSLRAEDTAVYYCARGGQLDHGAIYGLDVWGQGTTVTVSS VL: DIQMTQSPSSLSASVGDRVTITCRASQGISSWLAWYQQKPEKAPKSLIYAASSLQSGVPSRFSGSGSGTDFTLTISSLQPEDFATYYCQQYNSYPLTFGGGTKVEIK | 0.651 | 0.00084 | 1.29e+06 |
| 1275-D01 light chain paired with HC 1251-A06 (SEQ ID NO: 310) (antibody, human IgG1, V domains shown) VH: QVQLVESGGGVVQPGRSLRLSCAASGFDFSSYGMHWVRQAPDKGLEWVAVIWDDGSDRYYADSVKGRFTISRDNSKNTLYLQMNSLRAEDTAVYYCARGGTRVLGAIHGTDVWGQGTTVTVSS VL: DIQMTQSPSSLSASVGDRVTITCRASQGIGRWLAWYQQKPEKAPKSLIYGRSSLQSGVPSRFSGSGSGTDFTLTISSLQPEDFATYYCQQYNIYPLTFGGGTKVEIK | 0.721 | 0.000475 | 659000 |
| 1275-D10 light chain paired with HC 1251-A06 (SEQ ID NO: 310) (antibody, human IgG1, V domains shown) VH: QVQLVESGGGVVQPGRSLRLSCAASGFDFSSYGMHWVRQAPDKGLEWVAVIWDDGSDRYYADSVKGRFTISRDNSKNTLYLQMNSLRAEDTAVYYCARGGTRVLGAIHGTDVWGQGTTVTVSS VL: DIQMTQSPSSLSASVGDRVTITCRASQGVFSWLAWYQQKPEKAPKSLIYNATQLQSGVPSRFSGSGSGTDFTLTISSLQPEDFATYYCQQYYYYPLTFGGGTKVEIK | 0.559 | 0.000235 | 420000 |

Results, then the binder that gave them:

| Kd [nM] | koff [s⁻¹] | kon [M⁻¹ s⁻¹] | Binder |
| --- | --- | --- | --- |
| 0.376 | 0.000426 | 1.13e+06 | 1251-E06 heavy chain paired with VL SEQ ID NO: 272 (antibody, V domains shown) VH: QVQLVESGGGVVQPGRSLRLSCAASGFTFDSYGMHWVRQAPDKGLEWVAVIWYDGSNKVYADSVKGRFTISRDNSKNTLYLQMNSLRAEDTAVYYCARGGMVGQGAMFGLDVWGQGTTVTVSS VL: DIQMTQSPSSLSASVGDRVTITCRASQGISSWLAWYQQKPEKAPKSLIYAASSLQSGVPSRFSGSGSGTDFTLTISSLQPEDFATYYCQQYNSYPLTFGGGTKVEIK |
| 0.363 | 0.000779 | 2.15e+06 | 1251-F06 heavy chain paired with VL SEQ ID NO: 272 (antibody, V domains shown) VH: QVQLVESGGGVVQPGRSLRLSCAASGFTFSSFGMHWVRQAPDKGLEWVAVIWYDGSNEYYADSVKGRFTISRDNSKNTLYLQMNSLRAEDTAVYYCARGGSLVTRGVYGLDVWGQGTTVTVSS VL: DIQMTQSPSSLSASVGDRVTITCRASQGISSWLAWYQQKPEKAPKSLIYAASSLQSGVPSRFSGSGSGTDFTLTISSLQPEDFATYYCQQYNSYPLTFGGGTKVEIK |
| 0.184 | 0.000305 | 1.65e+06 | 1251-A03 heavy chain paired with VL SEQ ID NO: 272 (antibody, V domains shown) VH: QVQLVESGGGVVQPGRSLRLSCAASGFAFSDHGMHWVRQAPDKGLEWVAVIWYDGSHKIYADSVKGRFTISRDNSKNTLYLQMNSLRAEDTAVYYCARGGSLAGGAVYGTDVWGQGTTVTVSS VL: DIQMTQSPSSLSASVGDRVTITCRASQGISSWLAWYQQKPEKAPKSLIYAASSLQSGVPSRFSGSGSGTDFTLTISSLQPEDFATYYCQQYNSYPLTFGGGTKVEIK |
| 0.2 | 0.000302 | 1.51e+06 | 1251-A02 heavy chain paired with VL SEQ ID NO: 272 (antibody, V domains shown, Selected from a Fab library; VH3-33 / Vk1-12) VH: QVQLVESGGGVVQPGRSLRLSCAASGFAFSDHGMHWVRQAPDKGLEWVAVIWYDGSHKIYADSVKGRFTISRDNSKNTLYLQMNSLRAEDTAVYYCARGGSLAGGAVYGTDVWGQGTTVTVSS VL: DIQMTQSPSSLSASVGDRVTITCRASQGISSWLAWYQQKPEKAPKSLIYAASSLQSGVPSRFSGSGSGTDFTLTISSLQPEDFATYYCQQYNSYPLTFGGGTKVEIK |
| 0.224 | 0.000106 | 475000 | 1251-B08 heavy chain paired with VL SEQ ID NO: 272 (antibody, V domains shown) VH: QVQLVESGGGVVQPGRSLRLSCAASGFNFSDYGMHWVRQAPDKGLEWVAVIWYDGSISYYADSVKGRFTISRDNSKNTLYLQMNSLRAEDTAVYYCARGGTVEHGAVYGTDVWGQGATVTVSS VL: DIQMTQSPSSLSASVGDRVTITCRASQGISSWLAWYQQKPEKAPKSLIYAASSLQSGVPSRFSGSGSGTDFTLTISSLQPEDFATYYCQQYNSYPLTFGGGTKVEIK |
| 0.0752 | 0.000173 | 2.3e+06 | 1251-D06 heavy chain paired with VL SEQ ID NO: 272 (antibody, V domains shown) VH: QVQLVESGGGVVQPGRSLRLSCAASGFSFGSYGMHWVRQAPDKGLEWVAVVWYDGSKTIYADSVKGRFTISRDNSKNTLYLQMNSLRAEDTAVYYCARGGTLVRGAVYGLDVWGQGTTVTVSS VL: DIQMTQSPSSLSASVGDRVTITCRASQGISSWLAWYQQKPEKAPKSLIYAASSLQSGVPSRFSGSGSGTDFTLTISSLQPEDFATYYCQQYNSYPLTFGGGTKVEIK |
| 0.185 | 0.000125 | 678000 | 1251-F07 heavy chain paired with VL SEQ ID NO: 272 (antibody, V domains shown) VH: QVQLVESGGGVVQPGRSLRLSCAASGFTFSSHGMHWVRQAPDKGLEWVAVIWDDGSNEVYADSVKGRFTISRDNSKNTLYLQMNSLRAEDTAVYYCARGGTRIRGLRYGTDVWGQGTTVTVSS VL: DIQMTQSPSSLSASVGDRVTITCRASQGISSWLAWYQQKPEKAPKSLIYAASSLQSGVPSRFSGSGSGTDFTLTISSLQPEDFATYYCQQYNSYPLTFGGGTKVEIK |
| 0.225 | 0.000218 | 968000 | 1251-B09 heavy chain paired with VL SEQ ID NO: 272 (antibody, V domains shown) VH: QVQLVESGGGVVQPGRSLRLSCAASGFNFSDYGMHWVRQAPDKGLEWVAVTWYDGSREYYADSVKGRFTISRDNSKNTLYLQMNSLRAEDTAVYYCARGGTLVHGALYGNDVWGQGTTVTVSS VL: DIQMTQSPSSLSASVGDRVTITCRASQGISSWLAWYQQKPEKAPKSLIYAASSLQSGVPSRFSGSGSGTDFTLTISSLQPEDFATYYCQQYNSYPLTFGGGTKVEIK |
| 0.189 | 0.000167 | 885000 | 1251-D02 heavy chain paired with VL SEQ ID NO: 272 (antibody, V domains shown) VH: QVQLVESGGGVVQPGRSLRLSCAASGFSFASHGMHWVRQAPDKGLEWVAVIWDDGSDRYYADSVKGRFTISRDNSKNTLYLQMNSLRAEDTAVYYCARGGTRVLGAIHGTDVWGQGTTVTVSS VL: DIQMTQSPSSLSASVGDRVTITCRASQGISSWLAWYQQKPEKAPKSLIYAASSLQSGVPSRFSGSGSGTDFTLTISSLQPEDFATYYCQQYNSYPLTFGGGTKVEIK |
| 0.139 | 0.000137 | 989000 | 1251-D09 heavy chain paired with VL SEQ ID NO: 272 (antibody, V domains shown) VH: QVQLVESGGGVVQPGRSLRLSCAASGFSFSSYGMHWVRQAPDKGLEWVAVIWYDASIRKYAGSVKGRFTISRDNSKNTLYLQMNSLRAEDTAVYYCARGGTVERGAIYGTDVWGQGTTVTVSS VL: DIQMTQSPSSLSASVGDRVTITCRASQGISSWLAWYQQKPEKAPKSLIYAASSLQSGVPSRFSGSGSGTDFTLTISSLQPEDFATYYCQQYNSYPLTFGGGTKVEIK |
